Data on 25 substances can be found in US11135246B2, “Peptides and combination of peptides for use in immunotherapy against leukemias and other cancers” (Immatics Biotechnologies GmbH, priority 2017, dated 2021).

The experiment has as its target HLA-B*44:02 (Homo sapiens, UniProt P01889, A223V/A65T/A93T/A95T/D201E/D98Y/E176V/E187L/E204Q/E69K/G107R/H137Y/K202T/L105A/L119I/N104T/N87E/Q56L/Q94N/R106L/R155S/R180D/S101N/S121R/S35A/S48T/T118I/V36M/W191S/Y140D/Y91S). The experiment in a line: MHC binding assay, UV-ligand exchange with β2m ELISA, HLA-B*44:02. To be noted: binding to HLA-B*44:02, UV-ligand exchange. The text has this:
Candidate peptides for T cell based therapies according to the present invention were further tested for their MHC binding capacity (affinity). The individual peptide-MHC complexes were produced by UV-ligand exchange, where a UV-sensitive peptide is cleaved upon UV-irradiation, and exchanged with the peptide of interest as analyzed. Only peptide candidates that can effectively bind and stabilize the peptide-receptive MHC molecules prevent dissociation of the MHC complexes. To determine the yield of the exchange reaction, an ELISA was performed based on the detection of the light chain (β2m) of stabilized MHC complexes. The assay was performed as generally described in Rodenko et al. (Rodenko et al., 2006).
96 well MAXISorp plates (NUNC) were coated over night with 2 ug/ml streptavidin in PBS at room temperature, washed 4× and blocked for 1 h at 37° C. in 2% BSA containing blocking buffer. Refolded HLA-A*02:01/MLA-001 monomers served as standards, covering the range of 15-500 ng/ml. Peptide-MHC monomers of the UV-exchange reaction were diluted 100-fold in blocking buffer. Samples were incubated for 1 h at 37° C., washed four times, incubated with 2 ug/ml HRP conjugated anti-β2m for 1 h at 37° C., washed again and detected with TMB solution that is stopped with […]. Absorption was measured at 450 nm. Candidate peptides that show a high exchange yield (preferably higher than 50%, most preferred higher than 75%) are generally preferred for a generation and production of antibodies or fragments thereof, and/or T cell receptors or fragments thereof, as they show sufficient avidity to the MHC molecules and prevent dissociation of the MHC complexes.
For orientation: An ELISA detects its analyte on a solid surface through an enzyme-linked reagent.

In the case of “152 (AELLAKELY; listed as Homo sapiens) [compound 152]”, the “Peptide exchange (MHC class I binding score, peptide exchange yield)” value (shortened to “Peptide exchange”) is listed as ““++” (>20% = ++)”.

In the case of “147 (KEVPRSYEL; listed as Homo sapiens) [compound 147]”, the “Peptide exchange” value is listed as ““++” (>20% = ++)”.

“262 (QENQAETHAW; listed as Homo sapiens) [compound 262]”: the “Peptide exchange” value was ““+++” (>50 = +++)”.

Turning to “166 (NEVLASKY; listed as Homo sapiens) [compound 166]”, the “Peptide exchange” value was ““+” (>10% = +)”.

In the case of “138 (SQAPAARAF; listed as Homo sapiens) [compound 138]”, the “Peptide exchange” value was ““++” (>20% = ++)”.

For “276 (EEEGNLLRSW; listed as Homo sapiens) [compound 276]”, the “Peptide exchange” value is reported as ““+++” (>50 = +++)”.

“128 (GENDRLNHTY; listed as Homo sapiens) [compound 128]”: the “Peptide exchange” value is ““++” (>20% = ++)”.

As to “157 (VEIAEAIQL; listed as Homo sapiens) [compound 157]”, the “Peptide exchange” value is recorded as ““+++” (>50 = +++)”.

As to “277 (EEGNLLRSW; listed as Homo sapiens) [compound 277]”, the “Peptide exchange” value is recorded as ““+++” (>50 = +++)”.

Consider “141 (REYEYDLKWEF; listed as Homo sapiens) [compound 141]”, for which the “Peptide exchange” value is ““+++” (>50 = +++)”.

In the case of “182 (AQNLSIIQY; listed as Homo sapiens) [compound 182]”, the “Peptide exchange” value is reported as ““++” (>20% = ++)”.

On to “257 (KEFFFVKVF; listed as Homo sapiens) [compound 257]”, for which the “Peptide exchange” value is listed as ““+++” (>50 = +++)”.

Regarding “174 (TDKSFPNAY; listed as Homo sapiens) [compound 174]”, the “Peptide exchange” value is given as ““+” (>10% = +)”.

For “181 (GEIKEPLEI; listed as Homo sapiens) [compound 181]”, the “Peptide exchange” value was ““++” (>20% = ++)”.

Take “264 (SEDHSGSYW; listed as Homo sapiens) [compound 264]”: the “Peptide exchange” value is ““+++” (>50 = +++)”.

In the case of “155 (NEFPVIVRL; listed as Homo sapiens) [compound 155]”, the “Peptide exchange” value is ““+++” (>50 = +++)”.

Turning to “153 (KEFEQVPGHL; listed as Homo sapiens) [compound 153]”, the “Peptide exchange” value was ““++” (>20% = ++)”.

“151 (EVDASIFKAW; listed as Homo sapiens) [compound 151]”: the “Peptide exchange” value is ““++” (>20% = ++)”.

Consider “124 (SESLPKEAF; listed as Homo sapiens) [compound 124]”, for which the “Peptide exchange” value is recorded as ““++” (>20% = ++)”.

Turning to “261 (NEIEHIPVW; listed as Homo sapiens) [compound 261]”, the “Peptide exchange” value is ““+++” (>50 = +++)”.

With “139 (RENQVLGSGW; listed as Homo sapiens) [compound 139]”, the “Peptide exchange” value is on record as ““+++” (>50 = +++)”.

As to “187 (SDAQRPSSF; listed as Homo sapiens) [compound 187]”, the “Peptide exchange” value is ““+” (>10% = +)”.

For “177 (QENMQIQSF; listed as Homo sapiens) [compound 177]”, the “Peptide exchange” value is ““+++” (>50 = +++)”.

For the substance “143 (YEYDLKWEF; listed as Homo sapiens) [compound 143]”, the “Peptide exchange” value was ““+++” (>50 = +++)”.

With “158 (GENEDNRIGL; listed as Homo sapiens) [compound 158]”, the “Peptide exchange” value is listed as ““++” (>20% = ++)”.
